Experimental data: patent US6548060 (dated 2003)
One block for each molecule: values may come before it.

Key:
[1] = molecular target: ASK1 (apoptosis signal-regulating kinase), full-length (UniProt Q99683); experiment: cell-based or functional assay
[2] = molecular target: T1, ASK1 (apoptosis signal-regulating kinase), full-length, Q99683
T1 chain: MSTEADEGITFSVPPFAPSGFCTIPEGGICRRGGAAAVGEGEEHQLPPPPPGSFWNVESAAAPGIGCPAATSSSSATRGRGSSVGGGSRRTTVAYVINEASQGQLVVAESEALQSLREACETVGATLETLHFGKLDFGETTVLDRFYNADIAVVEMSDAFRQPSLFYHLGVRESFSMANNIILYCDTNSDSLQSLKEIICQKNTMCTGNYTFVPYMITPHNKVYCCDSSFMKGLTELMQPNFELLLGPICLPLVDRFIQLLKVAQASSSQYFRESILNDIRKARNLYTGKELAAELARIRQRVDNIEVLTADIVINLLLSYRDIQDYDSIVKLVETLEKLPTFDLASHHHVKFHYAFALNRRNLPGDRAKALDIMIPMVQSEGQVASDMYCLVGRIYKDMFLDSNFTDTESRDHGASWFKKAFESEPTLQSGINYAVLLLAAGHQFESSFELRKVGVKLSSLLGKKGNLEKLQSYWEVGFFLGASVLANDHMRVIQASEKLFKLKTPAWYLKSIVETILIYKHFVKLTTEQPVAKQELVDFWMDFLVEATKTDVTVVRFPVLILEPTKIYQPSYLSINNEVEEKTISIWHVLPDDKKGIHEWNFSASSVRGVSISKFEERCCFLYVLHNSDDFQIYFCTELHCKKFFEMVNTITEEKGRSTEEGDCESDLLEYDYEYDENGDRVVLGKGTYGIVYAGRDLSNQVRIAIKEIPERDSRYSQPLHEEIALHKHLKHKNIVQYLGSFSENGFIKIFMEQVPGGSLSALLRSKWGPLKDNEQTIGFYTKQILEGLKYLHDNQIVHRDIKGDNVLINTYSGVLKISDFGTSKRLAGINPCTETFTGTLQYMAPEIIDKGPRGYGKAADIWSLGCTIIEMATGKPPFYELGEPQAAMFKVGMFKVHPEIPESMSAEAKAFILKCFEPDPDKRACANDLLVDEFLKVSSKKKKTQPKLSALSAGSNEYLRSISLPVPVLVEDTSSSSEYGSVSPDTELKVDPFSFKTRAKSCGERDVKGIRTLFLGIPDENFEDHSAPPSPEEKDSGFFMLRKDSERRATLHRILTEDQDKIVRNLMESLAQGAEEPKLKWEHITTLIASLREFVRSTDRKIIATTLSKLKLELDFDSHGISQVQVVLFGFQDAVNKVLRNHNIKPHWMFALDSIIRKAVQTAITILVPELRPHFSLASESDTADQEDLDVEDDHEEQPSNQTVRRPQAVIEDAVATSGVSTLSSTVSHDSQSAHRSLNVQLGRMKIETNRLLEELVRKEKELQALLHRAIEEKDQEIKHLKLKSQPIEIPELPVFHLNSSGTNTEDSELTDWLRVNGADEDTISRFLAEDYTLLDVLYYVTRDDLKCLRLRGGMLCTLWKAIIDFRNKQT

[3] = molecular target: constitutive active mutant of Daxx, C-terminal 242 aa, Q9UER7
[4] = molecular target: T2, N-terminal 236 aa extension of human glutaminyl-tRNA synthetase, P47897
T2 chain: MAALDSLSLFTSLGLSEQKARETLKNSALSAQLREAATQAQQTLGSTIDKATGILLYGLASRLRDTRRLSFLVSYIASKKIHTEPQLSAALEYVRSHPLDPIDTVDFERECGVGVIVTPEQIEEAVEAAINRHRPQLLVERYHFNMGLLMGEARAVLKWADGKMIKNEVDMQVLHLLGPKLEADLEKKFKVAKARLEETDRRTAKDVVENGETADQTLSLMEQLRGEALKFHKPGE

Chain of constitutive active mutant of Daxx, C-terminal 242 aa, Q9UER7 (Q9UER7 whole entry, looked up, change not shown): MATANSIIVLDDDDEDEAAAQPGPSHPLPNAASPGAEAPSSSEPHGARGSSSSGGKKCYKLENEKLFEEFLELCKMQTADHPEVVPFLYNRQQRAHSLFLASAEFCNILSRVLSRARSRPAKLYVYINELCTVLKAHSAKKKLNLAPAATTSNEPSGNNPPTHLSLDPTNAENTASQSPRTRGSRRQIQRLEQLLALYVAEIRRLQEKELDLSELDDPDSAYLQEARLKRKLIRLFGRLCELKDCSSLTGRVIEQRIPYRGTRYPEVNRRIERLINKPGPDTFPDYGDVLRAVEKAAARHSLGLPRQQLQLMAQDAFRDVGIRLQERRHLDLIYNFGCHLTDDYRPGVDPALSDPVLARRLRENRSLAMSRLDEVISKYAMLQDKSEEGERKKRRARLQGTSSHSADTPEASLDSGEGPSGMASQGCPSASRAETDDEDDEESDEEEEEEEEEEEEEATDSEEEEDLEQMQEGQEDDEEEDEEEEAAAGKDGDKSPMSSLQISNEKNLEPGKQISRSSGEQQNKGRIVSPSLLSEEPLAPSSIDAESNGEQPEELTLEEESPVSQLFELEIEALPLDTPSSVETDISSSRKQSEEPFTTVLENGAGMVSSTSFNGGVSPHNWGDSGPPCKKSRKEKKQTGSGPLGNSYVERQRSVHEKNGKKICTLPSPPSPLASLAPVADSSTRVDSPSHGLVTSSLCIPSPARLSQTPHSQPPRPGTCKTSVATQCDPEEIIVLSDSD

apoptotic cells (HeLa, beta-galactosidase co-transfection, apoptotic morphology) [1]: 11%
Molecule: constitutive active mutant of Daxx, C-terminal 242 aa (from UniProt Q9UER7 499-740)

B1: C-terminal 539 aa catalytic domain of human glutaminyl-tRNA synthetase (protein)
chain: NYKTPGYVVTPHTMNLLKQHLEITGGQVRTRFPPEPNGILHIGHAKAINFNFGYAKANNGICFLRFDDTNPEKEEAKFFTAICDMVAWLGYTPYKVTYASDYFDQLYAWAVELIRRGLAYVCHQRGEELKGHNTLPSPWRDRPMEESLLLFEAMRKGKFSEGEATLRMKLVMEDGKMDPVAYRVKYTPHHRTGDKWCIYPTYDYTHCLCDSIEHITHSLCTKEFQARRSSYFWLCNALDVYCPVQWEYGRLNLHYAVVSKRKILQLVATGAVRDWDDPRLFTLTALRRRGFPPEAINNFCARVGVTVAQTTMEPHLLEACVRDVLNDTAPRAMAVLESLRVIITNFPAAKSLDIQVPNFPADETKGFHQVPFAPIVFIERTDFKEEPEPGFKRLAWGQPVGLRHTGYVIELQHVVKGPSGCVESLEVTCRRADAGEKPKAFIHWVSQPLMCEVRLYERLFQHKNPEDPTEVPGGFLSDLNLASLHVVDAALVDCSVALAKPFDKFQFERLGYFSVDPDSHQGKLVFNRTVTLKEDPGKV
kinase activity of ASK1 (MBP phosphorylation, immunocomplex kinase assay) [2]: The ASK1 activity was inhibited by the expression of QRS-F and -C but not of QRS -N

B2: human glutaminyl-tRNA synthetase, full-length (protein)
chain: MAALDSLSLFTSLGLSEQKARETLKNSALSAQLREAATQAQQTLGSTIDKATGILLYGLASRLRDTRRLSFLVSYIASKKIHTEPQLSAALEYVRSHPLDPIDTVDFERECGVGVIVTPEQIEEAVEAAINRHRPQLLVERYHFNMGLLMGEARAVLKWADGKMIKNEVDMQVLHLLGPKLEADLEKKFKVAKARLEETDRRTAKDVVENGETADQTLSLMEQLRGEALKFHKPGENYKTPGYVVTPHTMNLLKQHLEITGGQVRTRFPPEPNGILHIGHAKAINFNFGYAKANNGICFLRFDDTNPEKEEAKFFTAICDMVAWLGYTPYKVTYASDYFDQLYAWAVELIRRGLAYVCHQRGEELKGHNTLPSPWRDRPMEESLLLFEAMRKGKFSEGEATLRMKLVMEDGKMDPVAYRVKYTPHHRTGDKWCIYPTYDYTHCLCDSIEHITHSLCTKEFQARRSSYFWLCNALDVYCPVQWEYGRLNLHYAVVSKRKILQLVATGAVRDWDDPRLFTLTALRRRGFPPEAINNFCARVGVTVAQTTMEPHLLEACVRDVLNDTAPRAMAVLESLRVIITNFPAAKSLDIQVPNFPADETKGFHQVPFAPIVFIERTDFKEEPEPGFKRLAWGQPVGLRHTGYVIELQHVVKGPSGCVESLEVTCRRADAGEKPKAFIHWVSQPLMCEVRLYERLFQHKNPEDPTEVPGGFLSDLNLASLHVVDAALVDCSVALAKPFDKFQFERLGYFSVDPDSHQGKLVFNRTVTLKEDPGKV
ASK1 kinase activity enhanced by Daxx-CA (GST-SEK1 as substrate) [2]: QRS inhibited the ASK1 activity enhanced by Daxx
kinase activity of ASK1 (MBP phosphorylation, immunocomplex kinase assay) [2]: The ASK1 activity was inhibited by the expression of QRS-F and -C but not of QRS -N

B3: ASK1 (apoptosis signal-regulating kinase), full-length (protein)
chain: T1 chain
ASK1 kinase activity (GST-SEK1 as substrate) [3]: The active mutant of Daxx (Daxx-CA) activated ASK1
kinase activity of ASK1 (MBP phosphorylation, immunocomplex kinase assay) [4]: The ASK1 activity was inhibited by the expression of QRS-F and -C but not of QRS -N
